Results on one molecule are retold here after patent US8846873B2, “Antibodies directed to GPNMB and uses thereof” (Celldex Therapeutics, Inc., priority 2004, dated 2014).

Assay [1] deals with CG56972-expressing cells. As to the kind of experiment: Internalization of cell surface bound antibodies (flow cytometry). Format: cell-based. The conditions noted are these: incubation with CG56972-expressing cells. On the procedure:
Internalization of cell surface bound antibodies was assessed by a modified flow cytometry procedure. […] After washing cells, incubation was shifted to 37° C. for 1 hr to allow internalization of bound antibodies. Cells that remained on ice (total surface bound) or that were incubated at 37° C. […] Labeled cells were analyzed by flow cytometry as described above. The percentage of antibody internalized was determined using the GMRs and the following formula: Percent internalized=Total surface bound (4° C.)−Total surface bound (37° C.)/Total surface bound (4° C.)×100

The test system of assay [2] is SK-Mel-2 cells. The assay is described as follows: Flow cytometry of CR011 binding to cell surface CG56972/GPNMB. The conditions noted are these: SK-MEL-2, positive control. The arrangement: species or system human. On the procedure: Flow Cytometry: Quantitative analysis of GPNMB expression on the cell surface of cell lines was determined by flow cytometry. […] Cells were fixed in 1% paraformaldehyde/PBS and examined on a Becton Dickinson FACSCalibur flow cytometer. Data analysis was performed with Becton Dickinson Cell Quest software version 3.3 and the geometric mean fluorescence intensity ratio (GMR) was determined for each cell type.
Flow Cytometry: Quantitative analysis of CG56972 expression on the surface of cell lines was determined by flow cytometry (FACS). […] Cells were fixed in 1% paraformaldehyde/PBS and examined on a Becton Dickinson FACSCalibur flow cytometer. Data analysis was performed with Becton Dickinson Cell Quest software version 3.3 and the geometric mean fluorescence intensity ratio (GMR) was determined for each cell type.
On the technique in general: Flow cytometry measures light scatter and fluorescence of single cells or particles in a stream.

Assay [3] has as its target T1, GPNMB (Homo sapiens, UniProt Q14956).
T1 construct: made in house; host or cells: HEK 293
T1 sequence (Q14956 23-492): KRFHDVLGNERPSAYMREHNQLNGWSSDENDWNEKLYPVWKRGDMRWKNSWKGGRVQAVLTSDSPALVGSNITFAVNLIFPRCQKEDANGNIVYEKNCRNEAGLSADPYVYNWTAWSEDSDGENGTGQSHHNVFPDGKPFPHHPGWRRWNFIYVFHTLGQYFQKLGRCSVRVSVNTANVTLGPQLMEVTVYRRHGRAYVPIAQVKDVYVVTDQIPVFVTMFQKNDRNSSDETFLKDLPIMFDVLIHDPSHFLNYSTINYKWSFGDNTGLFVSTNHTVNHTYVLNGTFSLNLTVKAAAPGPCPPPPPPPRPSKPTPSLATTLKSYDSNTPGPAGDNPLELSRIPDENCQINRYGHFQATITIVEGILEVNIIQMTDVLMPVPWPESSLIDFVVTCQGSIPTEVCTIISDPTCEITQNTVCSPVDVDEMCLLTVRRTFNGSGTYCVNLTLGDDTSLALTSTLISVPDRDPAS
The assay is described as follows: Binning of antibodies (Luminex competitive binding). The settings on record: three bins of six anti-GPNMB antibodies. On the procedure:
Certain antibodies, described herein were binned in accordance with the protocol described in U.S. Patent Application Publication No. 20030157730. MxhIgG conjugated beads are prepared for coupling to primary antibody. The volume of supernatant needed is calculated using the following formula: (n+10)×50 μL (where n=total number of samples on plate). Where the concentration is known, 0.5 μg/mL is used. Bead stock is gently vortexed, then diluted in supernatant to a concentration of 2500 of each bead per well or 0.5×10^5/mL and incubated on a shaker in the dark at RT overnight, or 2 hours if at a known concentration of […]. Following aspiration, 50 μL of each bead is added to each well of filter plate, then washed once by adding 100 μL/well wash buffer and aspirating. Antigen and controls are added to filter plate 50 μL/well then covered and allowed to incubate in the dark for 1 hour on shaker. Following a wash step, a secondary unknown antibody is added at 50 μL/well using the same dilution (or concentration if known) as is used for the primary antibody. The plates are then incubated in the dark for 2 hours at RT on shaker followed by a wash step. Next, 50 μL/well biotinylated mxhIgG diluted 1:500 is added and allowed to incubate in the dark for 1 hour on shaker at RT. […]

Assay [4] relates to TK10. As to the kind of experiment: Anti GPNMB antibody mediated indirect cell killing (saporin secondary antibody-toxin conjugate, colony count). Format: cell-based. The conditions noted are these: primary antibody 50 ng/mL plus goat anti-human IgG-saporin 100 ng/well. On the procedure:
UACC-62, a GPNMB antigen expressing cell line, and TK10, a non-expressing cell line were plated onto flat bottom 96-well tissue culture plates (Becton Dickinson, Franklin Lakes, N.J., USA) at a density of 3000 cells per well. Once the cells reached ˜25% confluency, 100 ng/well of secondary antibody-toxin conjugate (goat anti-human IgG-saporin; Advanced Targeting Systems, San Diego, USA, HUM-ZAP; cat. # IT-22) was added. Anti-GPNMB MAbs 2.10.2, 2.22.1, 1.15.1 or isotype control mAb (pK16.3) were added to each well at a final concentration of 10 or 50 ng/mL. An anti-EGFR monoclonal antibody (MS-269-PABX, NeoMarkers, Fremont, Calif., USA) was used as a positive primary antibody control. Chemotherapy reagent 5-FU at 600 uM was used as a positive reagent control. On day 5, the cells were trypsinized, transferred to 6-well tissue culture plates and incubated at 37° C. Plates were examined daily and between 8-10 days, all plates were Giemsa stained and colonies were counted.

In assay [5] the test system is SK-Mel-2 cells. The assay is described as follows: Cell cycle analysis (BrdU / propidium iodide flow cytometry). Format: cell-based, human. The conditions noted are these: SK-Mel-2, 24 hour, 1000 ng/mL. On the procedure:
(§1) Briefly, cells were pulsed at the indicated times with 30 μM of bromodeoxyuridine (BrdU, Sigma) for 30 min, harvested, fixed and permeabilized in methanol. Nascent DNA synthesis was detected by anti-bromodeoxyuridine-FITC (BD Biosciences, San Jose, Calif.) staining. Total DNA content was detected using propidium iodide (PI, Sigma). For apoptosis analysis, cells were treated as above and labeled with Annexin V-FITC followed by propidium iodide exclusion using the Annexin V-FITC Apoptosis Detection kit I (BD PharMingen, San Diego, Calif.) according to the manufacturer's protocols. Flow cytometry (as described in the previous Example) was used to assay both cell cycle and apoptosis studies.
(§2) DNA synthesis and cell cycle progression were determined by flow cytometry (Table 52).

Assay [6] concerns TK-10 cells. Described as above. Format: cell-based, human. The conditions noted are these: TK-10, 24 hour, 1000 ng/mL. On the procedure:
as §1, §2

The test system of assay [7] is melanoma cell lines. The assay is described as follows: Clonogenic assay with 1.15.1-AE. Format: cell-based, human. The settings on record: various concentrations. On the procedure:
Melanoma cell lines were plated onto flat bottom 96-well tissue culture plates (Becton Dickinson, Franklin Lakes, N.J., USA). On day 2 or when cells reach ˜25% confluency, various concentrations of unconjugated and Auristatin E-conjugated 1.15.1 were added to cells. MAb 2.6.2-AE was also used as a conjugated isotype control in this study. On day 5, the cells were trypsinized, transferred to 6-well tissue culture plates and incubated at 37° C. Plates were examined daily. On days 8-10, all plates were Giemsa stained and colonies on the plates were counted.

B1: Mab1.15.1 (protein, listed as Homo sapiens)
chain: QVQLQESGPGLVKPSQTLSLTCTVSGGSISSFNYYWSWIRHHPGKGLEWIGYIYYSGSTYSNPSLKSRVTISVDTSKNQFSLTLSSVTAADTAVYYCARGYNWNYFDYWGQGTLVTVSSA
Take B1: the internalization entry in assay [1] was “internalized”. Also, in assay [2], the cell surface staining result is recorded as “strong cell surface staining”. For the same molecule, the Bin result in assay [3] is listed as “Bin 2”. In addition, in assay [4], the “cell death in GPNMB negative TK10 cells” value was “less than 24%”. In assay [5], the “% G1” value turned out to be 63.6%, the “% G2/M” value came to 6.4%, the “% S-phase” value came out at 25.2% and the “% Sub-G1” value was 0.5%. Also, in assay [6], the “% G1” value is recorded as 42.0%, the “% G2/M” value is given as 6.3%, the “% S-phase” value amounted to 39.8% and the “% Sub-G1” value amounted to 0.3%. The “effect on growth of all the melanoma cell lines tested” value in assay [7] is reported as “no effect on growth”.
